Data: patent publication US8026218 (UNIVERSITY OF ARIZONA, dated 2011)
Square brackets hold non-standard residues; d marks the D form. Ends that are not written are not given here. * marks the point of attachment. NMeBn(CF3)2 = C-terminal N-methyl bis(trifluoromethyl)benzyl amide; NH(3,5-(CF3)2-benzyl) = FC(F)(F)c1cc(CN*)cc(C(F)(F)F)c1; OBzl(3,5-(CF3)2) = FC(F)(F)c1cc(CO*)cc(C(F)(F)F)c1; OBn(OMe)2 = C-terminal OBn(OMe)2 ester; Dmt = Cc1cc(O)cc(C)c1C[C@H](N)C(=O)O; NMe(benzyl) = CN(Cc1ccccc1)*; NHBn = c1ccc(CN*)cc1

B1: TyrDAlaGlyPheMetDProLeuTrpOBn(CF3)2 (TY024) (peptide)
peptide: Y[dA]GFM[dP]LW-{OBzl(3,5-(CF3)2)}
B2: MetProLeuTrpOBn(CF3)2 (TY036) (peptide)
peptide: MPLW-{OBzl(3,5-(CF3)2)}
B3: DmtDAlaGlyPheNleProLeuTrpNHBn-3-(CF3) (TY053) (peptide)
peptide: YAGFXPLW
modifications: Dmt at 1; D-Ala at 2; Nle at 5 (X); C-terminal NH-Bn-3-(CF3) amide
B4: TyrDAlaGlyPheMetProLeuTrpOBn(OMe)2 (TY030) (peptide)
peptide: Y[dA]GFMPLW-{OBn(OMe)2}
B5: DmtDAlaGlyPheMetProLeuTrpOBn(CF3)2 (TY033) (peptide)
peptide: [Dmt][dA]GFMPLW-{OBzl(3,5-(CF3)2)}
B6: TyrDAlaGlyPheMetProLeuTrpNMeBn (TY026) (peptide)
peptide: Y[dA]GFMPLW-{NMe(benzyl)}
B7: DmtDAlaGlyPheMetProLeuTrpNHBn(CF3)2 (TY032) (peptide)
peptide: [Dmt][dA]GFMPLW-{NH(3,5-(CF3)2-benzyl)}
B8: TyrDAlaGlyPheMetProLeuTrpNHBn (TY025) (peptide)
peptide: Y[dA]GFMPLW-NHBn
B9: TyrDAlaGlyPheNleProLeuTrpNHBn(CF3)2 (TY045) (peptide)
peptide: YAGFXPLW
modifications: D-Ala at 2; Nle at 5 (X); C-terminal NH-Bn(CF3)2 amide
B10: TyrDAlaGlyPheMetProLeuTrpNMeBn(CF3)2 (TY028) (peptide)
peptide: Y[dA]GFMPLW-{NMeBn(CF3)2}

These binders were tested against T1, human δ opioid receptor (human, UniProt P41143 1-372) (assay: radioligand competition vs [3H]DPDPE, membranes of hDOR cells).
T1 construct: whole, on cells; Used as crude membrane preparations of the transfected cells; also called hDOR; DOR
T1 sequence (P41143 whole entry, stated change not applied): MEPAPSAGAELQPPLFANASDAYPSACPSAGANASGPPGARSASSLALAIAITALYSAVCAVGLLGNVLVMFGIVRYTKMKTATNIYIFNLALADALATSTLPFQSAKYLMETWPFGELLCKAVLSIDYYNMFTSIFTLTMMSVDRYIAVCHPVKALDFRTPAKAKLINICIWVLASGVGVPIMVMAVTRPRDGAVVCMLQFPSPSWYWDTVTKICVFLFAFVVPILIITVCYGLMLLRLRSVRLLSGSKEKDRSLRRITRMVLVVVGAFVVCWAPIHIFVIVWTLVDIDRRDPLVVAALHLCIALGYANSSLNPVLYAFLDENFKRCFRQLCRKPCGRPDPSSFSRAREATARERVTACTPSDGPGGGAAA

Row | Binder | Ki [nM]
1 | B1 | 13.2
2 | B2 | 1280
3 | B3 | 4.1
4 | B4 | 0.93
5 | B5 | 0.22
6 | B6 | 0.32
7 | B7 | 0.12
8 | B8 | 0.44
9 | B9 | 1
10 | B10 | 2.15

The binders below were run against T2, rat µ opioid receptor (rat, UniProt P33535 1-398) (assay: radioligand competition vs [3H]DAMGO, membranes of rMOR cells).
T2 construct: whole, on cells; Used as crude membrane preparations of the transfected cells; also called rMOR; MOR
T2 sequence (P33535 whole entry): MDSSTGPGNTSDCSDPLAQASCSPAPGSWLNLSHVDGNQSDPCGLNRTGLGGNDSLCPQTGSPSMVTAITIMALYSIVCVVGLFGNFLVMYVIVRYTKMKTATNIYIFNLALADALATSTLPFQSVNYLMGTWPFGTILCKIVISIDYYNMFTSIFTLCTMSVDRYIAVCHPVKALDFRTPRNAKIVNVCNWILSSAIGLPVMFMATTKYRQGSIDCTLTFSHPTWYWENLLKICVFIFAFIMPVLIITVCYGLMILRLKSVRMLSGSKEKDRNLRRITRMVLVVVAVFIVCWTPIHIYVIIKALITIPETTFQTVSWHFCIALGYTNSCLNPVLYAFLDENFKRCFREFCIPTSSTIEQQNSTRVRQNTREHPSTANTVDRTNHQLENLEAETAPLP

Row | Binder | Ki [nM]
11 | B2 | 4550

What follows are binders tested against guinea pig NK1 receptor (guinea pig, UniProt P30547 1-407) (assay: cell-based or functional assay).
Chain of guinea pig NK1 receptor (P30547 whole entry): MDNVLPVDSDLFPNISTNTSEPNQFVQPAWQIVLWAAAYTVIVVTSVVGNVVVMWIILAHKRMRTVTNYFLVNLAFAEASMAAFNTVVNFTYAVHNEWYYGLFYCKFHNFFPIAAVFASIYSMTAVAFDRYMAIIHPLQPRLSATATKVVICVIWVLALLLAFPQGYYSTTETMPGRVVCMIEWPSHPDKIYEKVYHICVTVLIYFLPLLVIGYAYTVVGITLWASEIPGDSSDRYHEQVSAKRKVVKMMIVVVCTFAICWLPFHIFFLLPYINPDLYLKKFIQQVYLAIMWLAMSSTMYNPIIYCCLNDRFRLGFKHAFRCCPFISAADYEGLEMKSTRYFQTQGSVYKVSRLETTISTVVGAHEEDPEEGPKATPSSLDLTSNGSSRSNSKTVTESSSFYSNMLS

Row | Binder | GPI/LMMP SP antagonist Ke [nM]
12 | B4 | 4.1
13 | B5 | 24.5
14 | B7 | 7.5
15 | B8 | 9.9
16 | B9 | 40.8

Each binder was assayed against µ opioid receptor of the guinea pig isolated ileum (guinea pig, UniProt P97266 1-98) (assay: cell-based or functional assay).
Chain of µ opioid receptor of the guinea pig isolated ileum (P97266 whole entry): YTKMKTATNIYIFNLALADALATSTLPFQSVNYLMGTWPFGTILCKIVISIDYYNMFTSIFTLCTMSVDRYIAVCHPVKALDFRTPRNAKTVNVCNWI

Row | Binder | GPI/LMMP opioid(mu) agonist IC50 [nM]
17 | B5 | 100
18 | B7 | 18.6
19 | B8 | 61.1
20 | B9 | 463
21 | B10 | 971

The binders below were run against T1, human δ opioid receptor (assay: cell-based or functional assay).

Row | Binder | GTP binding hDOR EC50 [nM] | GTP binding hDOR Emax [%]
22 | B4 | 0.8 | 61
23 | B5 | 0.73 | 200
24 | B6 | 8.9 | 93
25 | B7 | 1.2 | 24
26 | B8 | 2.6 | 51.7
27 | B9 | 5 | 125
28 | B10 | 12.9 | 59

These binders were tested against T2, rat µ opioid receptor (assay: cell-based or functional assay).

Row | Binder | GTP binding rMOR EC50 [nM] | GTP binding rMOR Emax [%]
29 | B1 | 123 | 28
30 | B7 | 62 | 74
31 | B8 |  | 46.8

These binders were tested against T3, human NK1 receptor (human, UniProt P25103 1-407) (assay: radioligand competition vs [3H]substance P, membranes of hNK1 CHO cells).
T3 construct: whole, on cells; Used as membrane preparations of transfected CHO cells; also called hNK1; human neurokinin-1 receptor
T3 sequence (P25103 whole entry): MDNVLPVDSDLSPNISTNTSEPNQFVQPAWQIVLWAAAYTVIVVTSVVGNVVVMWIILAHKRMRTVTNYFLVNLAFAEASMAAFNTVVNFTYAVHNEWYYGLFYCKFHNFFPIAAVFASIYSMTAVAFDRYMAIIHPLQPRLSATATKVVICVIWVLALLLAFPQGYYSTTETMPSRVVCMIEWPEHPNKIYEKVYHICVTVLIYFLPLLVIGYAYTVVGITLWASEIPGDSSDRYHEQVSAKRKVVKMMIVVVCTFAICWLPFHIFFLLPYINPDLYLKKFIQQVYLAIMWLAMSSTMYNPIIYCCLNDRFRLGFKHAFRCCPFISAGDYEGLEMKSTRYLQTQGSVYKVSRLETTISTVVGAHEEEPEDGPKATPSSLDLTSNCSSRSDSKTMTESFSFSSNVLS

Row | Binder | Ki [nM]
32 | B3 | 1.04
33 | B5 | 1.2
34 | B7 | 0.008
35 | B9 | 0.0028

Each binder was assayed against T4, rat NK1 receptor (rat, UniProt P14600 1-407) (assay: radioligand competition vs [3H]substance P, membranes of rNK1 CHO cells).
T4 construct: whole, on cells; Used as membrane preparations of transfected CHO cells; also called rNK1; rat neurokinin-1 receptor
T4 sequence (P14600 whole entry): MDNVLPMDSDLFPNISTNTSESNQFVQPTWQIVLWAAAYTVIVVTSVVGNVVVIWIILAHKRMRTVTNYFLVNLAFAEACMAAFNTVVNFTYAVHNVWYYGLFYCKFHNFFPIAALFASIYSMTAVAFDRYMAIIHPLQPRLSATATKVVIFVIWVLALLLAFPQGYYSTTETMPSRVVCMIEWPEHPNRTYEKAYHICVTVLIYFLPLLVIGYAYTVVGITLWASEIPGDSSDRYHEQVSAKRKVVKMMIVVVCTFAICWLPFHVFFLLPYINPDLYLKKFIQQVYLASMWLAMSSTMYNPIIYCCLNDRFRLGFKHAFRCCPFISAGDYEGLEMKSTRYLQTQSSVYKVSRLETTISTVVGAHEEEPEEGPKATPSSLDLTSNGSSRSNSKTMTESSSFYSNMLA

Row | Binder | Ki [nM]
36 | B2 | 0.99
37 | B4 | 9.53
38 | B5 | 0.96
39 | B6 | 44.5
40 | B7 | 2.3
41 | B10 | 2.01
